{"source": "paper PMC3783447", "about": "“Tropine Forming Tropinone Reductase Gene from Withania somnifera (Ashwagandha): Biochemical Characteristics of the Recombinant Enzyme and Novel Physiological Overtones of Tissue-Wide Gene Expression Patterns” (PLoS ONE, 2013)", "key": {"WsTR-I [1]": {"target": "T1, WsTR-I (Withania somnifera, UniProt U5PUZ1)", "T1 construct": "His6-tagged (pET28a NdeI/BamHI), E. coli BL21 (DE3); Ni-NTA and gel filtration; homodimer about 60 kDa", "test": "spectrophotometric A340, NADPH oxidation", "type": "biochemical", "conditions": "forward reaction, MES-NaOH pH 6.7, 30°C, kcat per monomer, unit inferred from kcat/Km", "excerpt": "(§1) spectrophotometric A340, NADPH oxidation on WsTR-I"}, "[2]": {"target": "Withania somnifera tropine forming tropinone reductase (WsTR-I), recombinant His6-WsTR-I (Withania somnifera)", "test": "SEC; calibrated Sephadex G-150 column (70.0 cm x 0.6 cm), 0.1 M MES-NaOH pH 6.7 with 0.1 M NaCl, 5 ml/h; markers ovalbumin, BSA, alcohol dehydrogenase; elution followed by catalytic activity; native mass about 60 kDa compared with the 29.41 kDa subunit"}, "[3]": {"tested_on": "CN1[C@@H]2CC[C@H]1CC(=O)C2", "test": "spectrophotometric A340, NADPH oxidation", "type": "biochemical, Withania somnifera", "conditions": "forward reaction, MES-NaOH pH 6.7, 30°C, kcat per monomer, unit inferred from kcat/Km", "excerpt": "as §1"}, "WsTR-I [4]": {"target": "T1, WsTR-I", "test": "spectrophotometric A340, NADP+ reduction", "type": "biochemical", "conditions": "reverse reaction; tropine; 30°C; printed kcat 0.54 (no unit) disagrees with printed kcat/Km", "excerpt": "spectrophotometric A340, NADP+ reduction on WsTR-I"}}}
{"compound": "CC1CCCC(=O)C1", "note": "(stereo not shown) [3-methyl-cyclohexanone]", "values": [{"measurement": "Km", "setting": "WsTR-I [1]; NADPH", "value": 2110, "unit": "µM"}]}
{"compound": "Withania somnifera tropine forming tropinone reductase (WsTR-I), recombinant His6-WsTR-I (enzyme)", "values": [{"measurement": "stoichiometry N", "setting": "[2]", "value": 2}]}
{"compound": "NC(=O)C1=CN([C@@H]2O[C@H](COP(=O)(O)OP(=O)(O)OC[C@H]3O[C@@H](n4cnc5c(N)ncnc54)[C@H](OP(=O)(O)O)[C@@H]3O)[C@@H](O)[C@H]2O)C=CC1", "note": "[NADPH]", "values": [{"measurement": "Km", "setting": "WsTR-I [1]; tropinone", "value": 0.43, "unit": "µM"}]}
{"compound": "WsTR-I (Withania somnifera)", "values": [{"measurement": "Km", "setting": "[3]", "value": 1270, "unit": "µM"}, {"measurement": "kcat", "setting": "[3]", "value": 9.51, "unit": "s⁻¹"}, {"measurement": "kcat/Km", "setting": "[3]", "value": 7490, "unit": "M⁻¹ s⁻¹"}]}
{"compound": "NC(=O)c1ccc[n+]([C@@H]2O[C@H](COP(=O)(O)OP(=O)(O)OC[C@H]3O[C@@H](n4cnc5c(N)ncnc54)[C@H](OP(=O)(O)O)[C@@H]3O)[C@@H](O)[C@H]2O)c1", "note": "[NADP^+]", "values": [{"measurement": "Km", "setting": "WsTR-I [4]", "value": 96.2, "unit": "µM"}]}
